The test system of this data set is transgenic maize R0 plants (double copy events). Briefly: R0 plant greenhouse glyphosate spray: vegetative tolerance and induced male sterility. The data set is classed as in vivo. The following applies: for % Vegetative Tolerance / % Vegetative Tolerant: glyphosate 0.75 lb ae/acre at V5 then V8; for % Vegetative Tolerant: <=10% injury 7 days after V5 spray. As for the experimental part: Transformation vectors containing the recombinant DNA constructs were used with an Agrobacterium-based transformation method and maize immature embryos and techniques known in the art. Leaf samples of R0 plants were collected and molecular analysis was conducted to select transgenic plants containing a single copy (one insertion) or a double copy (two independent insertions) of the recombinant DNA construct and no presence of vector backbone. Single copy events were not sprayed with glyphosate and were selfed and advanced for R1 seed collection, while double copy events were used for R0 glyphosate spray to assess vegetative tolerance and induced male sterility. Transgenic plants that were not sprayed with glyphosate had normal anthesis, normal pollen shedding, and normal pollen development as determined by Alexandar staining and microscopic observation.
Double copy R0 events were used in testing to approximate a single copy homozygous event. Plants were sprayed with glyphosate at two different growth stages to determine if the presence of the mts-siRNA target element in the recombinant DNA construct provided vegetative glyphosate tolerance and glyphosate-induced tassel sterility. The plants were sprayed in a greenhouse with 1× glyphosate (0.75 lb ae/acre) applied at the V5 stage followed by 1× glyphosate (0.75 lb ae/acre) applied at the V8 stage. Seven days after the V5 stage glyphosate application, plants were scored for vegetative injury with scores of ≦10% injury considered as showing vegetative glyphosate tolerance (% Vegetative Tolerant). Male sterility was measured in two ways. […] Anthers were then collected and dissected to microscopically observe pollen development. Anthers for each event were tested for no viable pollen grains produced as detected by Alexandar staining under microscopic observation and scored as not producing any viable pollen (% No Pollen). In plants not sprayed with glyphosate, tassel development, anther extrusion, and pollen development were normal.
The mts-siRNA target elements were tested in multiple transformation vector configurations. Each transformation vector was used to produce multiple R0 plants with each R0 plant representing a unique transgenic event made using the same transformation vector. Data for three different transformation vector configurations are provided as Tables 11 and 12.

Setting [1] is: vector configuration A, no viable pollen by Alexandar staining.
Where [2] appears, read: vector configuration A, no anther extrusion up to S90+12 after V8 glyphosate.

B1: SEQ ID NO: 10: recombinant mts-siRNA target element sequence (nucleic acid)
DNA: AGACGACGACCGTGCATGGTGATGAATCACAGACGACGAACACGCATGTCGCATCGCCGTCCTCTCACACCATAGAACTGCAAATGTCCG
modifications: expressed or natural sequence; target site or template, no part of the molecule
As to B1, under “vector configuration B”, the “% Completely Male-sterile” value worked out at 55%, the “% No Pollen” value is listed as 22% and the “% Vegetative Tolerance” value is given as 90%. Where the note is “vector configuration C”, the “% Completely Male-sterile” value was determined as 100%, the “% No Pollen” value is recorded as 0% and the “% Vegetative Tolerance” value was 83%.

B2: SEQ ID NO: 9: reverse complement of mts-siRNA target element, 99% identity to positions 191 to 490 of cDNA SEQ ID NO: 22 (nucleic acid)
DNA: GGACAACAAGCACCTTCTTGCCTTGCAAGGCCTCCCTTCCCTATGGTAGCCACTTGAGTGGATGACTTCACCTTAAAGCTATTGATTCCCTAAGTGCCAGACATAATAGGCTATACATTCTCTCTGGTGGCAACAATGAGCCATTTTGGTTGGTGTGGTAGTCTATTATTGAGTTTTTTTTGGCACCGTACTCCCATGGAGAGTAGAAGACAAACTCTTCACCGTTGTAGTCGTTGATGGTATTGGTGGTGACGACATCCTTGGTGTGCATGCACTGGTGAGTCACTGTTGTACTCGGCG
modifications: Zea mays
Take B2: the “% Vegetative Tolerant” value (vector configuration A, listed as 9) stood at 100%. The “% Completely Male-sterile” value (vector configuration A, no anther extrusion up to S90+12 after V8 glyphosate, listed as 9) came to 40%. Besides, under setting [1], the “% No Pollen” value worked out at 0%.

B3: SEQ ID NO: 14: recombinant mts-siRNA target element sequence (nucleic acid)
DNA: CCCAACGTGCATATCGCCATCCTCTGCTACGAGGGAATGTCATTGGTCGATGAGATGAGGGTGAATCGGATGTTGAGGTGGCACGATAGTTAAGGCGCAAGGGTAT
modifications: chemistry not fully specified; the letters are possibly those of the target site
On to B3, for which, under “vector configuration A, listed as 14”, the “% Vegetative Tolerant” value was found to be 90%. For the same molecule, the “% Completely Male-sterile” value reads like this: under setting [2], “none”; (vector configuration A, no anther extrusion up to S90+12 after V8 glyphosate, listed as 14) 0%. Also, the “% No Pollen” value under setting [1] stood at 0%.

B4: SEQ ID NO: 16: recombinant mts-siRNA target element sequence (nucleic acid)
DNA: GACAACAAGCACCTTCTTGCCTTGCAGTATTGGTGGTGACGACATCCTTGGTGTGCATGCACTGGTGAGTCACTGTTGTACGTGATAACTTCTATGCTGGCTGTGATTGCTAGTTGAAGAAAAGAATAGATATGGTGACATCAAGTTTCCACTGCGTGACGCCAACGTGCATATCGCCATCCTCTGCTACGAGGGAATGTCATTGGTCGATGAGATGAGGGTGAATCGGATGTTGAGGTGGCACGATAGTTAAGGCGCAAGGGT
Consider B4, for which the “% Vegetative Tolerant” value (vector configuration A) is given as 80%. Besides, under setting [2], the “% Completely Male-sterile” value is on record as 50%. In addition, under setting [1], the “% No Pollen” value stood at 0%.

B5: SEQ ID NO: 2: mts-siRNA target element, single nucleotide change (T69A) relative to SEQ ID NO: 1 (nucleic acid)
DNA: AGACGACGACCGTGCATGGTGATGAATCACAGACGACGAACACGCATGTCGCATCGCCGTCCTCTTTGAATCACACAGCATCACCTTCTTCGCTCTACTACTCCCCCGAGCAATCACCGACCAATAACACCAACCATCAACCTCCCCCGTCGCCGCCGCCTTCACCGTCCTCCCCTCACACCATAGAACTGCAAATGTCCG
As for B5, the “tassel male sterility and pollen by Alexandar stain” value (double copy R0 events with SEQ ID NO: 2, glyphosate 0.75 lb ae/acre at V5 then V8) is “very few aborted pollen grains or no pollen grains were detected”. Moreover, the “% Vegetative Tolerant” value (vector configuration A, listed as 2) stood at 100%. For the same molecule, the “% Completely Male-sterile” value (vector configuration A, no anther extrusion up to S90+12 after V8 glyphosate, listed as 2) is given as 82%. The “% No Pollen” value under setting [1] is listed as 82%.

B6: SEQ ID NO: 15: recombinant mts-siRNA target element sequence (nucleic acid)
DNA: TCGTCCAAACGTGACCGTGTGGCTAGAAGCAGAGGATGGCGATATGCACGTTATGCTTTCCTAGACTCTCACTGTAGTGG
modifications: chemistry not fully specified; the letters are possibly those of the target site
As for B6, the “% Vegetative Tolerant” value (vector configuration A, listed as 15) worked out at 90%. Further, the “% Completely Male-sterile” value reads like this: under setting [2], “none”; (vector configuration A, no anther extrusion up to S90+12 after V8 glyphosate, listed as 15) 0%. Besides, the “% No Pollen” value under setting [1] turned out to be 0%.

B7: SEQ ID NO: 11: recombinant mts-siRNA target element sequence (nucleic acid)
DNA: AGACGACGACCGTGCATGGTGATGAATCACAGACGACGAACACGCATGTCGCATCGCCGTCCTCTCACACCATAGAACTGCAAATGTCCGACAACAAGCACCTTCTTGCCTTGCAGTATTGGTGGTGACGACATCCTTGGTGTGCATGCACTGGTGAGTCACTGT
Regarding B7, where the note is “vector configuration B”, the “% Completely Male-sterile” value was found to be 50%, the “% No Pollen” value stood at 0% and the “% Vegetative Tolerance” value turned out to be 100%. In addition, for the setting “vector configuration C”, the “% Completely Male-sterile” value is on record as 80%, the “% No Pollen” value is on record as 0% and the “% Vegetative Tolerance” value was 55%.

B8: SEQ ID NO: 13: recombinant mts-siRNA target element sequence (nucleic acid)
DNA: ACGTGATAACTTCTATGCTGGCTGTGATTGCTAGTTGAAGAAAAGAATAGATATGGTGACATCAAGTTTCCACTGCGTGACG
modifications: chemistry not fully specified; the letters are possibly those of the target site
B8: the “% Vegetative Tolerant” value (vector configuration A, listed as 13) is given as 100%. The “% Completely Male-sterile” value by setting is: under setting [2], “none”; (vector configuration A, no anther extrusion up to S90+12 after V8 glyphosate, listed as 13) 0%. Also, the “% No Pollen” value under setting [1] stood at 0%.

B9: SEQ ID NO: 12: recombinant mts-siRNA target element sequence (nucleic acid)
DNA: AGACGACGACCGTGCATGGTGATGAATCACAGACGACGAACACGCATGTCGCATCGCCGTCCTCTCACACCATAGAACTGCAAATGTCCGCTCTTCACCGTTGTAGTCGTTGATGGTATTGGTGGTGACGACATCCTTGGTGTGCATGCACTGGTGAGTCACTGTTGTAC
With B9, under “vector configuration B”, the “% Completely Male-sterile” value is listed as 50%, the “% No Pollen” value was 20% and the “% Vegetative Tolerance” value was 100%. Moreover, where the note is “vector configuration C”, the “% Completely Male-sterile” value is reported as 23%, the “% No Pollen” value is on record as 0% and the “% Vegetative Tolerance” value was 87%.

B10: SEQ ID NO: 3: mts-siRNA target element, nucleotide positions 239 to 433 of cDNA SEQ ID NO: 18 (nucleic acid)
DNA: TCTAGCCACACGGTCACGTTTGGACGACCAATAATAGGCTTGCAACCCTTCAAATTGTGTCCATCAGCTTCCCAACGTGCATATCGCCATCCTCTGCTTCGTGTCCCATGTCACCACCCCCACTCTTCCTCTTTACATGCAATGCAAATAAAGCAGATCCAACGTGGATGAGGGTGAATCGGATGTTGAGGTGGG
modifications: Zea mays
B10: for the setting “vector configuration A”, the “% Vegetative Tolerant” value was determined as 90%. In addition, the “% Completely Male-sterile” value under setting [2] was 10%. The “% No Pollen” value under setting [1] was 0%.

The values are drawn from US20170029841A1, “METHODS AND COMPOSITIONS FOR SELECTIVE REGULATION OF PROTEIN EXPRESSION” (priority 2015, published 2017).
